The target of assay [1] is T1, hPD-1-his antigen (human, UniProt Q15116 25-167, limits assumed).
T1 construct: Coating antigen; not shown: his tag
The assay can be described thus: ELISA on coated hPD-1-his. Here is the method: (§1) An ELISA plate was coated with hPD-1-his antigen at a concentration of 0.25 μg/ml (100 μl per well) by incubation at 4° C. overnight.
(§2) The ELISA plate coated with the hPD-1-his antigen was blocked with 1% BSA (diluted in the PBS buffer) at 37° C. for 2 hours, and then washed with 1×PBST buffer containing 1% Tween-20 for three times, with gently patting to dryness.
(§3) The absorbance of solution in each well was measured on a microplate reader under a wavelength of 450 nm.

Assay [2] deals with T1, hPD-1-his antigen. Briefly: ELISA on coated hPD-1-his; antibody 1:5 of 2 µg/ml. The procedure: as §1, §2, §3
For orientation: ELISA stands for enzyme-linked immunosorbent assay.

Assay [3] has as its target T2, hPD-1-hIgGFc antigen (human, UniProt Q15116 25-167, limits assumed).
T2 construct: not shown: human IgG Fc
The assay can be described thus: competition ELISA on coated hPD-1-hIgGFc; competitor PD-L2-his tag. The procedure:
A 96-well ELISA plate was coated with hPD-1-hIgGFc antigen at a concentration of 1.0 μg/ml (100 μl per well) by incubation at 4° C. overnight.
After the 96-well ELISA plate was washed with the PBST buffer for five times and gently patted to dryness, HRP conjugated anti-his tag mouse monoclonal antibody as a secondary antibody in 1:750 dilution (50 μl per well) was added for incubation at 37° C. for 1 hour.

The target of assay [4] is T2, hPD-1-hIgGFc antigen. Briefly: competition ELISA on coated hPD-1-hIgGFc; competitor PD-L1-mIgG2aFc. Here is the method:
A 96-well ELISA plate was coated with hPD-1-hIgGFc antigen at a concentration of 0.5 μg/ml (50 μl per well) by incubation at 4° C. overnight.

One molecule from patent publication US20200291118A1 (HANX BIOPHARMACEUTICS, published 2020) can be followed below.

What is called EC50 is the concentration at which the effect is half-maximal. The low end stands for a more potent agent, the high end for a less potent agent. For orientation: IC50 means the concentration at which inhibition is half-maximal.

T2 sequence (Q15116 25-167 limits assumed): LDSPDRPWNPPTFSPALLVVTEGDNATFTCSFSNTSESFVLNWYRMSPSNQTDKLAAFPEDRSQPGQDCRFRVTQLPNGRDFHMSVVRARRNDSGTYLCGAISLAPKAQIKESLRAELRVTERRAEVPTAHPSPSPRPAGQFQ
T1 sequence (Q15116 25-167 limits assumed): as above

B1: humanized antibody H8 (anti-PD-1 IgG antibody) (antibody, V domains shown)
VH: EVQLVQSGGGLVQPGGSLKLSCAASGFTFSSYGMSWVRQAPGKGLDWVATISGGGRDTYYPDSVKGRFTISRDNSKNNLYLQMNSLRAEDTALYYCARQKGEAWFAYWGQGTLVTVSA
VL: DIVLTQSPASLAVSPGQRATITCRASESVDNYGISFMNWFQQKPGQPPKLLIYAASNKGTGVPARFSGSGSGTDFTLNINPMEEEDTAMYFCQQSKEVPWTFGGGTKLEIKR
notes: also called HX008; HX008 18A10 antibody
As to B1, the EC50 in assay [1] is 0.05 nM. Also, the “absorbance at 450 nm” value in assay [2] stood at 1.76. Moreover, the figures for the IC50 in assay [3] and in assay [4] were 2.7 nM and 1 nM, respectively.
